From patent publication US20200332371A1 (UNIVERSITY OF CHICAGO, published 2020)

Tests used:
[1] = target: SspB-C-term (bacteriophage T7) (UniProt P0AFZ3); experiment: cell-based or functional assay
[2] = target: FKBP-C-term (bacteriophage T7) (UniProt P62942); experiment: cell-based or functional assay
[3] = target: T1, C-ZB (bacteriophage T7, UniProt P00573 180-883); experiment: cell-based or functional assay
[4] = target: T2, C-term RNAP (WT) (bacteriophage T7, UniProt P00573 180-883); experiment: E. coli luciferase transcription reporter (split T7 RNAP complementation)
T2 construct: C-terminal half of T7 RNAP split at position 179, without a fusion partner; expressed in E. coli; A start codon for the unfused half is not described; also called C-terminal split RNAP; C-terminal T7 RNAP
T2 sequence (P00573 180-883 limits assumed): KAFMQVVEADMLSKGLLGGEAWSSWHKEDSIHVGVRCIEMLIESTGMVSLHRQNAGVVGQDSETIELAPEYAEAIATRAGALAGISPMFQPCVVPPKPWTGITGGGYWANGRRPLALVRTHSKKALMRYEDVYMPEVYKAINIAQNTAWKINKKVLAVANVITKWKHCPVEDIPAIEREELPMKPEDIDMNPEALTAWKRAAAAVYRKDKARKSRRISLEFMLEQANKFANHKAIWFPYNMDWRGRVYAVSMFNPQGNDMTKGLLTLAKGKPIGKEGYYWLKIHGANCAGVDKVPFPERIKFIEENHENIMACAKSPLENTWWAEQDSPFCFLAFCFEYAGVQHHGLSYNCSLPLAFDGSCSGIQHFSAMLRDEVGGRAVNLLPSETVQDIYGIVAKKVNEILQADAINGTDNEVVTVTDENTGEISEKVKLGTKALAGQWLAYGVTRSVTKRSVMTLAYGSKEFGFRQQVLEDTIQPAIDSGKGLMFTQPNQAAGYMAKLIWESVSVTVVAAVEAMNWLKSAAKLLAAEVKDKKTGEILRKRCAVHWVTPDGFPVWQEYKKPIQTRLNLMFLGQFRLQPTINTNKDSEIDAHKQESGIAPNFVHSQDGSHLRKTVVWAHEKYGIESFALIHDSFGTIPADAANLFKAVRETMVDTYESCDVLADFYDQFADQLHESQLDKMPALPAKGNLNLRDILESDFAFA
Description: (§1) In vivo transcription assays of split RNAPs. N- and C-terminal halves of the RNAP were cloned into expression vectors, with the N-terminal RNAP under a constitutive promoter and the C-terminal RNAP under the arabinose-inducible promoter (Supplementary FIG. 1). S1030 cells (Carlson, et al., 2014) were transformed by electroporation with three plasmids: (i) an N-terminal RNAP expression plasmid, (ii) a C-terminal expression plasmid, and (iii) a reporter plasmid that encodes luciferase under control of the T7 promoter. The transformed cells were then plated onto agar plates (15 g/L in LB) with 50 μg/mL carbenicillin, 50 μg/mL spectinomycin, 33 μg/mL chloramphenicol, and 10 mM glucose. […] After growth with shaking at 37° C. for 2 h, 150 μL of each culture was transferred to a 96-well black wall, clear bottom plate (Costar), and luminescence and OD600 was measured on a Synergy H4 Hybrid Reader (BioTek). The data were analyzed by dividing the luminscence values by the background-corrected OD600 value, then subtracting out the background from the reporter vector alone. All values were then normalized to the wild-type split RNAP fused to ZA and ZB (data shown in FIG. 1d), which was assigned an arbitrary value of 100, allowing the values from each luminescence plot to be compared to one another. […]

[5] = target: T1, C-ZB; experiment: as above
Description: as §1

T1 sequence (P00573 180-883, tags or fused parts left off): as the sequence (P00573 180-883 limits assumed) above
SspB-C-term (bacteriophage T7), sequence (P0AFZ3 6-116, tags or fused parts left off): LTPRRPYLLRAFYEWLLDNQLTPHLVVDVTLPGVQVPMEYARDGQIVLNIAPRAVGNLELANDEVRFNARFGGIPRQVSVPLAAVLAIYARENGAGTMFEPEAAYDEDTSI
FKBP-C-term (bacteriophage T7), sequence (P62942 1-108, tags or fused parts left off): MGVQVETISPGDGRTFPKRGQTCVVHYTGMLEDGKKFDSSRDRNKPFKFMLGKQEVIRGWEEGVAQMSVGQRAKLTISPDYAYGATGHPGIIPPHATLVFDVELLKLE

In the case of N-term-iLID, the transcriptional output (luciferase reporter, E. coli), blue LED light against dark [1] is reported as 26 fold.

For “N-term-FRB (from UniProt P42345 2021-2113)”, the RNA synthesis in the in vivo luciferase transcription reporter assay (E. coli), with rapamycin [2] was 340 fold.

B1: N-ZA (other)
chain: MNTINIAKNDFSDIELAAIPFNTLADHYGERLAREQLALEHESYEMGEARFRKMFERQLKAGEVADNAAAKPLITTLLPKMIARINDWFEEVKAKRGKRPTAFQFLQEIKPEAVAYITIKTTLACLTSADNTTVQAVASAIGRAIEDEARFGRIRDLEAKHFKKNVEEQLNKRVGHVYKGGSGSGSSALKKELQANKKELAQLKWELQALKKELAQ
With B1 the “transcription (luciferase reporter under the T7 promoter, E. coli)” value [3] was about 5 fold.

B2: N-term RNAP (WT) (enzyme)
chain: MNTINIAKNDFSDIELAAIPFNTLADHYGERLAREQLALEHESYEMGEARFRKMFERQLKAGEVADNAAAKPLITTLLPKMIARINDWFEEVKAKRGKRPTAFQFLQEIKPEAVAYITIKTTLACLTSADNTTVQAVASAIGRAIEDEARFGRIRDLEAKHFKKNVEEQLNKRVGHVYK
notes: N-terminal half of T7 RNAP split at position 179, without a fusion partner; expressed in E. coli; also called N-terminal split RNAP; N-terminal T7 RNAP
B2: binds [4]; binds [5].
